Reference: patent US20210292422A1 (SURROZEN, published 2021)

T1: FZD5 (UniProt Q13467 28-150, limits assumed)
T1 construct: also called Frizzled 5
T1 sequence (looked up): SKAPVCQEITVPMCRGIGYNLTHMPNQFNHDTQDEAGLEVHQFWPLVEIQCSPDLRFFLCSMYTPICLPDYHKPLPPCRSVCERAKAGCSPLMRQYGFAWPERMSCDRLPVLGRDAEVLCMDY

T2: LRP6E1E2 (UniProt O75581 20-630)
T2 construct: domain: E1E2; also called LRP6 E1E2 domains
T2 sequence (looked up): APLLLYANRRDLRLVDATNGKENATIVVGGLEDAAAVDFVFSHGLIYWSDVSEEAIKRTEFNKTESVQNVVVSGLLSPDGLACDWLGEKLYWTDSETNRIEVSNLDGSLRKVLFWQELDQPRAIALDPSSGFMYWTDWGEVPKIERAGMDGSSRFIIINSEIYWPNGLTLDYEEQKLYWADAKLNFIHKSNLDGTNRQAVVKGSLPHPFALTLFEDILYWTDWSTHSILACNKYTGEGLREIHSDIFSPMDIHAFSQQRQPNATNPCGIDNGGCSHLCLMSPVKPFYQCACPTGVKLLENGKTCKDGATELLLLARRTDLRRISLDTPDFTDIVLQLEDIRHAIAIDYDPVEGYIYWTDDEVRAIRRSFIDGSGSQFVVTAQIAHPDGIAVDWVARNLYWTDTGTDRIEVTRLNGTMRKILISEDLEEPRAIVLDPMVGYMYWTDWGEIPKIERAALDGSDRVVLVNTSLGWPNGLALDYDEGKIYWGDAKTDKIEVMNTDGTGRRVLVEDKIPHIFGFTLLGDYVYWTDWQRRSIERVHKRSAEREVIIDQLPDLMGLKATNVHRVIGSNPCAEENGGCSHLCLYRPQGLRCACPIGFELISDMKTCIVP

B1: F3: antiFZD5, 8 (2919) scFv (scFv)
scFv: EVQLVESGGGLVQPGGSLRLSCAASGFNISYSYIHWVRQAPGKGLEWVASIYSSSGSTSYADSVKGRFTISADTSKNTAYLQMNSLRAEDTAVYYCARGAIDYWGQGTLVTVSSGGGGSGGGGSGGGGSDIQMTQSPSSLSASVGDRVTITCRASQSVSSAVAWYQQKPGKAPKLLIYSASSLYSGVPSRFSGSRSGTDFTLTISSLQPEDFATYYCQQWYSSGHVLITFGQGTKVEIK
B2: L1:5:F1:Fc (bispecific antibody)
chain: DVKLVESGGGLVKLGGSLRLSCAASGFSFSTSYMSWVRQTPEKRLELVAAINLNGGSTYYSDTVKGRFTISRDNAKNTLYLQMSSLKSEDTAFYYCASELAGYGTPFAYWGQGTLVTVSAGSAASGSSGGSSSGADIVLTQSPATLSVTPGDSVSLSCKASQSISYNLHWYQQKSHESPRLLIKYTSQSISGIPSRFSGSGSGTDFTLTINNVETEDFGMYFCQQSNSWPLTFGAGTKLEVKGSGSGEVQLVESGGGLVQPGGSLRLSCAASGFTFSHYTLSWVRQAPGKGLEWVSVISGDGSYTYYADSVKGRFTISSDNSKNTLYLQMNSLRAEDTAVYYCARNFIKYVFANWGQGTLVTVSSGGGGSGGGGSGGGGSDIELTQPPSVSVAPGQTARISCSGDNIGSFYVHWYQQKPGQAPVLVIYDKSNRPSGIPERFSGSNSGNTATLTISGTQAEDEADYYCQSYANTLSLVFGGGTKLTVLGSGSGDKTHTCPPCPAPEAAGGPSVFLFPPKPKDTLMISRTPEVTCVVVDVSHEDPEVKFNWYVDGVEVHNAKTKPREEQYNSTYRVVSVLTVLHQDWLNGKEYKCKVSNKALGAPIEKTISKAKGQPREPQVYTLPPSREEMTKNQVSLTCLVKGFYPSDIAVEWESNGQPENNYKTTPPVLDSDGSFFLYSKLTVDKSRWQQGNVFSCSVMHEALHNHYTQKSLSLSPGK
B3: F1: antiFZD1, 2, 7, 5, 8 (18R5) scFv (scFv)
scFv: EVQLVESGGGLVQPGGSLRLSCAASGFTFSHYTLSWVRQAPGKGLEWVSVISGDGSYTYYADSVKGRFTISSDNSKNTLYLQMNSLRAEDTAVYYCARNFIKYVFANWGQGTLVTVSSGGGGSGGGGSGGGGSDIELTQPPSVSVAPGQTARISCSGDNIGSFYVHWYQQKPGQAPVLVIYDKSNRPSGIPERFSGSNSGNTATLTISGTQAEDEADYYCQSYANTLSLVFGGGTKLTVL
B4: F1:5:L1:Fc (bispecific antibody)
chain: EVQLVESGGGLVQPGGSLRLSCAASGFTFSHYTLSWVRQAPGKGLEWVSVISGDGSYTYYADSVKGRFTISSDNSKNTLYLQMNSLRAEDTAVYYCARNFIKYVFANWGQGTLVTVSSGGGGSGGGGSGGGGSDIELTQPPSVSVAPGQTARISCSGDNIGSFYVHWYQQKPGQAPVLVIYDKSNRPSGIPERFSGSNSGNTATLTISGTQAEDEADYYCQSYANTLSLVFGGGTKLTVLGSGSGDVKLVESGGGLVKLGGSLRLSCAASGFSFSTSYMSWVRQTPEKRLELVAAINLNGGSTYYSDTVKGRFTISRDNAKNTLYLQMSSLKSEDTAFYYCASELAGYGTPFAYWGQGTLVTVSAGSAASGSSGGSSSGADIVLTQSPATLSVTPGDSVSLSCKASQSISYNLHWYQQKSHESPRLLIKYTSQSISGIPSRFSGSGSGTDFTLTINNVETEDFGMYFCQQSNSWPLTFGAGTKLEVKGSGSGDKTHTCPPCPAPEAAGGPSVFLFPPKPKDTLMISRTPEVTCVVVDVSHEDPEVKFNWYVDGVEVHNAKTKPREEQYNSTYRVVSVLTVLHQDWLNGKEYKCKVSNKALGAPIEKTISKAKGQPREPQVYTLPPSREEMTKNQVSLTCLVKGFYPSDIAVEWESNGQPENNYKTTPPVLDSDGSFFLYSKLTVDKSRWQQGNVFSCSVMHEALHNHYTQKSLSLSPGK
notes: 2:2 tandem scFv-Fc
B5: F2: antiFZD1, 2, 7 (R2H1) scFv (scFv)
scFv: EVQLVESGGGLVQPGGSLRLSCAASGFNISSSYIHWVRQAPGKGLEWVAYIYSSYGSTYYADSVKGRFTISADTSKNTAYLQMNSLRAEDTAVYYCARASWYALDYWGQGTLVTVSSGSAASGSSGGSSSGADIQMTQSPSSLSASVGDRVTITCRASQSVSSAVAWYQQKPGKAPKLLIYSASSLYSGVPSRFSGSRSGTDFTLTISSLQPEDFATYYCQQYWYGVAPITFGQGTKVEIK
B6: L1:15:F1:Fc (bispecific antibody)
chain: DVKLVESGGGLVKLGGSLRLSCAASGFSFSTSYMSWVRQTPEKRLELVAAINLNGGSTYYSDTVKGRFTISRDNAKNTLYLQMSSLKSEDTAFYYCASELAGYGTPFAYWGQGTLVTVSAGSAASGSSGGSSSGADIVLTQSPATLSVTPGDSVSLSCKASQSISYNLHWYQQKSHESPRLLIKYTSQSISGIPSRFSGSGSGTDFTLTINNVETEDFGMYFCQQSNSWPLTFGAGTKLEVKGSGSGGSGSGGSSGGEVQLVESGGGLVQPGGSLRLSCAASGFTFSHYTLSWVRQAPGKGLEWVSVISGDGSYTYYADSVKGRFTISSDNSKNTLYLQMNSLRAEDTAVYYCARNFIKYVFANWGQGTLVTVSSGGGGSGGGGSGGGGSDIELTQPPSVSVAPGQTARISCSGDNIGSFYVHWYQQKPGQAPVLVIYDKSNRPSGIPERFSGSNSGNTATLTISGTQAEDEADYYCQSYANTLSLVFGGGTKLTVLGSGSGDKTHTCPPCPAPEAAGGPSVFLFPPKPKDTLMISRTPEVTCVVVDVSHEDPEVKFNWYVDGVEVHNAKTKPREEQYNSTYRVVSVLTVLHQDWLNGKEYKCKVSNKALGAPIEKTISKAKGQPREPQVYTLPPSREEMTKNQVSLTCLVKGFYPSDIAVEWESNGQPENNYKTTPPVLDSDGSFFLYSKLTVDKSRWQQGNVFSCSVMHEALHNHYTQKSLSLSPGK
notes: 2:2 tandem scFv-Fc
B7: F1:10:L1:Fc (bispecific antibody)
chain: EVQLVESGGGLVQPGGSLRLSCAASGFTFSHYTLSWVRQAPGKGLEWVSVISGDGSYTYYADSVKGRFTISSDNSKNTLYLQMNSLRAEDTAVYYCARNFIKYVFANWGQGTLVTVSSGGGGSGGGGSGGGGSDIELTQPPSVSVAPGQTARISCSGDNIGSFYVHWYQQKPGQAPVLVIYDKSNRPSGIPERFSGSNSGNTATLTISGTQAEDEADYYCQSYANTLSLVFGGGTKLTVLGSGSGGSGSGDVKLVESGGGLVKLGGSLRLSCAASGFSFSTSYMSWVRQTPEKRLELVAAINLNGGSTYYSDTVKGRFTISRDNAKNTLYLQMSSLKSEDTAFYYCASELAGYGTPFAYWGQGTLVTVSAGSAASGSSGGSSSGADIVLTQSPATLSVTPGDSVSLSCKASQSISYNLHWYQQKSHESPRLLIKYTSQSISGIPSRFSGSGSGTDFTLTINNVETEDFGMYFCQQSNSWPLTFGAGTKLEVKGSGSGDKTHTCPPCPAPEAAGGPSVFLFPPKPKDTLMISRTPEVTCVVVDVSHEDPEVKFNWYVDGVEVHNAKTKPREEQYNSTYRVVSVLTVLHQDWLNGKEYKCKVSNKALGAPIEKTISKAKGQPREPQVYTLPPSREEMTKNQVSLTCLVKGFYPSDIAVEWESNGQPENNYKTTPPVLDSDGSFFLYSKLTVDKSRWQQGNVFSCSVMHEALHNHYTQKSLSLSPGK
notes: 2:2 tandem scFv-Fc
B8: F1:15:L1:Fc (bispecific antibody)
chain: EVQLVESGGGLVQPGGSLRLSCAASGFTFSHYTLSWVRQAPGKGLEWVSVISGDGSYTYYADSVKGRFTISSDNSKNTLYLQMNSLRAEDTAVYYCARNFIKYVFANWGQGTLVTVSSGGGGSGGGGSGGGGSDIELTQPPSVSVAPGQTARISCSGDNIGSFYVHWYQQKPGQAPVLVIYDKSNRPSGIPERFSGSNSGNTATLTISGTQAEDEADYYCQSYANTLSLVFGGGTKLTVLGSGSGGSGSGGSSGGDVKLVESGGGLVKLGGSLRLSCAASGFSFSTSYMSWVRQTPEKRLELVAAINLNGGSTYYSDTVKGRFTISRDNAKNTLYLQMSSLKSEDTAFYYCASELAGYGTPFAYWGQGTLVTVSAGSAASGSSGGSSSGADIVLTQSPATLSVTPGDSVSLSCKASQSISYNLHWYQQKSHESPRLLIKYTSQSISGIPSRFSGSGSGTDFTLTINNVETEDFGMYFCQQSNSWPLTFGAGTKLEVKGSGSGDKTHTCPPCPAPEAAGGPSVFLFPPKPKDTLMISRTPEVTCVVVDVSHEDPEVKFNWYVDGVEVHNAKTKPREEQYNSTYRVVSVLTVLHQDWLNGKEYKCKVSNKALGAPIEKTISKAKGQPREPQVYTLPPSREEMTKNQVSLTCLVKGFYPSDIAVEWESNGQPENNYKTTPPVLDSDGSFFLYSKLTVDKSRWQQGNVFSCSVMHEALHNHYTQKSLSLSPGK
notes: 2:2 tandem scFv-Fc
B9: L1:10:F1:Fc (bispecific antibody)
chain: DVKLVESGGGLVKLGGSLRLSCAASGFSFSTSYMSWVRQTPEKRLELVAAINLNGGSTYYSDTVKGRFTISRDNAKNTLYLQMSSLKSEDTAFYYCASELAGYGTPFAYWGQGTLVTVSAGSAASGSSGGSSSGADIVLTQSPATLSVTPGDSVSLSCKASQSISYNLHWYQQKSHESPRLLIKYTSQSISGIPSRFSGSGSGTDFTLTINNVETEDFGMYFCQQSNSWPLTFGAGTKLEVKGSGSGGSGSGEVQLVESGGGLVQPGGSLRLSCAASGFTFSHYTLSWVRQAPGKGLEWVSVISGDGSYTYYADSVKGRFTISSDNSKNTLYLQMNSLRAEDTAVYYCARNFIKYVFANWGQGTLVTVSSGGGGSGGGGSGGGGSDIELTQPPSVSVAPGQTARISCSGDNIGSFYVHWYQQKPGQAPVLVIYDKSNRPSGIPERFSGSNSGNTATLTISGTQAEDEADYYCQSYANTLSLVFGGGTKLTVLGSGSGDKTHTCPPCPAPEAAGGPSVFLFPPKPKDTLMISRTPEVTCVVVDVSHEDPEVKFNWYVDGVEVHNAKTKPREEQYNSTYRVVSVLTVLHQDWLNGKEYKCKVSNKALGAPIEKTISKAKGQPREPQVYTLPPSREEMTKNQVSLTCLVKGFYPSDIAVEWESNGQPENNYKTTPPVLDSDGSFFLYSKLTVDKSRWQQGNVFSCSVMHEALHNHYTQKSLSLSPGK
notes: 2:2 tandem scFv-Fc

Tests used:
[1] = target: T1, FZD5; experiment: column 'Specificity (Clone name)' of the component table; method not given there
[2] = target: T2, LRP6E1E2; experiment: BLI (Octet), FIG. 11B
[3] = target: FZD7 (UniProt O75084 44-163); experiment: column 'Specificity (Clone name)' of the component table; method not given there

Binder | binding result [1] | binding result [2] | binding result [3]
B1 | binds | – | –
B2 | – | binds | –
B3 | binds | – | binds
B4 | – | binds | –
B5 | – | – | binds
B6 | – | binds | –
B7 | – | binds | –
B8 | – | binds | –
B9 | – | binds | –
